Assay results from the RNAGym collection of RNA variant scans (doi:10.1073/pnas.2313332121).
This sample holds only a part of the variants without activity.

B1: TPR 5TU (parent)
chain: GGAUCUUCUCGAUCUAACAAAAAAGACAAAUCUGCCACAAAGCUUGAGAGCAUCUUCGGAUGCAGAGGCGGCAGCCUUCGGUGGCGCGAUAGCGCCAACGUUCUCAACUAUGACACGCAAAACGCGUGCUCCGUUGAAUGGAGUUUAUCAUG

Variants of: B1
Test: polymerase ribozyme fitness, log enrichment relative to wild type (log ratio); higher = more active; in vitro selection for triplet polymerase activity
How it was run: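 Fitness measures genotype enrichment against wild-type enrichment on a logarithmic scale, with inverse-variance-weighted averaging of replicates. The logarithm is base 2, and genotypes were kept only with ≥10 input reads and ≥1 read per output in Illumina sequencing. The sequenced libraries came from one triplicate in vitro selection round, including frozen incubation at −7 °C, of PCR-built, transcribed mutant libraries of each subunit of a heterodimeric triplet polymerase ribozyme.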

Variant	polymerase ribozyme fitness (log ratio)
GGAUCUUCUCGAUCUAACAAACAAGACAAAUCUGCCACCAAGCUUGAGAGCAACUUCGGAUGCAGAGACGGCAGCCUUCGGUGGCGCGAUUGCGCCAACGUUCUCAACUAUGACACGCAAAACGCGUGCUCCGUUGAAUGGAGUUAAUCAUG [A22C A39C U53A G68A A91U U146A]	≤ -4.2
GGAUCUUCUCGACCUAACAAAAAAGACAAAUCUGCCACAAAGCUUGAGAGCAUCUUCGGAUGCAGAGGCGGCAGCCUUCGGUGGCGCGAUUGCGCCAACGUUCUCAACUAUGACACGCAUAACGCGUGCUCCGUUGAAUGGAGUUUAUCAUG [U13C A91U A120U]	-3.86
GGAUCUUCUCGAUCUAACAAAAAAGACAAAUCUGCCACAAAGCUUCGGAGCAUCUUCGGAUGCAGAGGCGACAGCCUUCGGUGGUGCCAUAGCGCCAACGUUCUCAACUAUGACACGCAAAACGCGUGCUCCGUUGAAUGGAGUUUAUCAUG [G46C A47G G71A C85U G88C]	≤ -4.2
GGAUCUUCUCGAUCUAACAAAAAAGACAAAUCUGCCACAAAGCUUGAGAGAAUCUUCGGAUGCAGAGGCGGCAGCCUUCGGUGGCGCGAUAGCGCAAACGUUCUCAACUAUGACGCGCAAAACGCGUGCUCCGUUGUAUGGAGUUUAUCAUG [C51A C96A A115G A137U]	≤ -4.2
GGAUCUUCUCGAUCUAACAAAAAAGACAAAUCUGCCACACAGCUUGAGACCAUCUUCGGAUGCAGAGGCGGCAGCCUUUGCUGGCGCGAUAGCGCCAACGUUCUCAACUAUGACACGUAAAACGCGUGCUCCGUUGAAUGGAGUUUAUCAUG [A40C G50C C79U G81C C118U]	≤ -4.2
GGAUCUUCUCGAUCUAACAAAAAAGACAAAUCUGCCACAAAGCUUGAGAGCAUCUUCGGAUGCAGAGGCGGCAGCCUUCGGUGGCGCGAUAGCGACAACGUUCUCAAGUAUGACACGCAAAACGCGUGCUCCGUUGAAUGGAGUUUAUCAUG [C95A C108G]	≤ -4.2
GGAUCUUCUCGAUCUAACAAAAAAGACAAAUCUGUCACAAAGCUUGAGAGCAUCUUCGGAUGCAGAGGCGGCAGCCUUCGGUGGAGCGAUAGCGCCAACGUUCUCAACUAUGACACGCAAAACGCGUGCUCCGUUGAAUGGAGUUUAUCAUG [C35U C85A]	-1.42
GGAUCUUCUCGAUCUAACAAAGAAGACAAAUCUGCCACAAGGCUUGAGAGCAUCUUCGGAUGCAGAGGCGGCAGCCUUCGGUGGCGCGAUAGCGCCAACGUUCUCAACUAUGACACGCAGAACGCGUGCUCCGUUGAAUGUAGUUUAUCAUG [A22G A41G A120G G141U]	1.45
GGAUCACCUCGAUCUAACAAAAAAGACAAAUCUGCCACAAAGCUUGAGAGCAUCUUCGGAUGCAGAGGCGGCAGCCUUCGGUAGCGCGAUAGCGCCAACGUUCUCAACUAUGACACGCAAAACGAGUGCUCCGUUGAAUGGAGUUUAUCAUG [U6A U7C G83A C125A]	-3.64
GGAUCUUCUCGAUCUAACAAAAAAGACAAAUCUGCCACAAAGCUUGAGAGCAUCUUCGGAUGCAGAGGAGGCAGCCUUCGGUGACGCGGUAGCGCCAACGUUCUCAACUAUGACACGCAAAACGCGUGCUCCGUUGAAUGGAGUUCAUCAUG [C69A G84A A89G U146C]	-2.59
GGAUCUUCUCGAUCUAACAAAAAAGACAAAUCUGCCACAAAGCUUGAGAGCAUCUUCGUAUGCAGAGGCGGCAGCCUUCGGUGGCGCGAUAGCUCCAACGUUCUUAACUAUGACACGCAAAACUCGUGCUCCGUUGAAUGGACUUUAUCAUG [G59U G94U C105U G124U G143C]	-3.65
GGAUCUUCUCGAUCUAACAAAAAAGACAAAUCUGCCACAAAGCUUGAGAGUAUCUACGGAUGCAGAGGCGGCUGCCUGCGGUGGCGCGAUUGCGCCAACGUUCUCAACUAUGACACGCAAAACGCGUGCUCCGUUGAAUGCAGUUUAUCAUA [C51U U56A A73U U78G A91U G141C G152A]	-3.97
GGAUCUUCUCGAUCUAACAUAAAAGACAAAUGUGCCACAAAGCUUGAGAGCAUCUUUGGAUGCAGAGGCGGCGGCCUUCGGGGGCGCGAUAACGCCAACGUUCUCAACUAUGACACGCAAAACGCGUGCUCCGUUGAAUGGAGUUUAUCAUG [A20U C32G C57U A73G U82G G92A]	≤ -4.2
GGAUCUUCUCGAUCUAACAAAAAAGACAAAUCUGCCACAAAGCUUGAGAGCAUCUUCGGAUGCCGAGGCGGCAGCCUUCGGUGGCGCGAUAGCGCCAACGUUCUCAACUAUGACUCGCAAAACGCGUGCUCCGUUGAAUGGUUUUUAUCAUG [A64C A115U A142U G143U]	≤ -4.2
GGAUCUUCUCGAUCUAACGAAAAAGACAAGUCUGCCAUAAAGCUUGAGAGCAUCUUCGGAUGCAGAGGCGGCAGCCUUCGGUGGGGCGUUAGCGCCAACGUUCUCAACUAUGACACGCAAAACGCGUGCGCCGUUGAAUGGAGUUUAUCAUG [A19G A30G C38U C85G A89U U130G]	≤ -4.2
GGAUCUUCUCGAUCUAACAAAAAAGACAAAUCUGCCACAAAGCUUAAGAGCAUCUUCGGAUGCAGAGGCGGCAGCCUUCGGUGUCGCGAUAGCGCCAAAGUUCUCAACUCUGAUACGCAAAACGCGUGCUCCGUUGAAUGGAGUUCAUCAUG [G46A G84U C99A A110C C114U U146C]	≤ -4.2
GGAUCUUCUCGAUCUAUCAAAAAAGACAAAUCUGCCACAAAGCUUGAGAGCAUCUUCGGAUGCAGAGGCGGCAGCCUUCGGUGGCGCGAUAUCGCCAACGGUCUCAACUAUGACACGCAAAACGCGGGCUCCGUUGAAUGGAGUUUAACAUG [A17U G92U U101G U127G U148A]	-4.01
GGAUCUUCUCGAUCUAACAAAAAAGACAAAUCUGCCACAAAGCUUGGGAGCAUCUUCGGAUGCAGAGGCGGCAGCCUUCGGUGUCGCGAUAGCGCCAACGUUCUCAACUAUGACACGCAAAACGCGUGCUCCGUUGAAUGGAGUUUAUUAUG [A47G G84U C149U]	-3.35
GGAUCUUCUCGAUCUAACAAAAAAGACAAAUCUGCCUCAAAGCUUGAGAGCAUUUUCGGAUGCAGAGGCGGCAGCCUUCGGUGGCGCGAUAGUGCCAACGUUCUCAACUAUGACACGCAAAACGCGUGCUCCGUUGAAUGGAGUUUAUCAUG [A37U C54U C93U]	-2.44

Variant	polymerase ribozyme fitness (log ratio)
GGAUCUUCUCGAUCUAACAAAAAAGACAAAUCUGCCACAAAACUUGAUAGCUUCUUCGGAUGCAGAGGCGGCAGACUUCGGUGGCGCGACAGCGCCAACGUUCUCAACUAUGACACGCAAAACGCGUGCUCCGUUGAAUGGAGUUUAUCAUG [G42A G48U A52U C75A U90C]	≤ -4.2
GGAUCUUCUCGAUCUAACAAGAAAGACAAAUCGGCCACAAAGCUUGAGAGCCUCUUCGGAUGCCGAGGCGGCAGGCUUCGGUGGCGCGAUAGGGCCAACGUUCUCAACUAUGACACGCAAAACGCGUGCUCCGUUGAAUGGAGUUUAUCAGG [A21G U33G A52C A64C C75G C93G U151G]	≤ -4.2
GGAUCUUCUCGAUCUAACAAAAAAGACAAAUCUGCCACAAAGCUUGAGAGCAUCUUCGCAUGCAGAGGCGGCAGCCUUCGGUGGCGCGAUAGCGCCAACGUUCUCAACUAUGACACGCAAAACGCGUGCUCCGUUGAAUGGAGUUUCUCAUG [G59C A147C]	-0.516
GGAUCUUCUCGAUUUAACAAAAAAGACAAAUCUGCCACAAAGCUUGAGAGCAUCUUCGGAUGCAGAGGCGGCAGCCUUCGGUGGCGCGAUAGCGCCAACGUUCUCAACUAUGACACGCAAAGCGCGUGCUCCGUUGAAUGGAGUUUAUCAUG [C14U A122G]	-1.71
GGAUCUUCUCGAUCUAACAAAGAAGACAAAUCUGCCACAAAGCUUGAGAGCAUCGUUGGAUGCAGAGGCGGCAGCCUUCGGUGUAGCGAUAGCGCCAACGUUCUCAACUAUGACACGCAAAACGCGUGCUCCGUUGAAUGGAGUUUAUCAUG [A22G U55G C57U G84U C85A]	-0.696
GGAUCUUCUCGAUCUAACACAAAAGACAAAUCUGCCACAAAGCUUGAGAGCAUCUUCGGAUGCAGAGGCGGCAGCCUUCGGUGGCGCGAUAGCGCCAACGUUCUCAACUAUGACACGCAAAACGCGUGCUCCGUUGAAUGGAGGUUAUCAUG [A20C U144G]	0.273
GGUUCUUCUCGAUCUAACAAAAAAGACAAAUCUGCCACAAAGCUUGAGAGCAUCUUCGGAUGCAGAGGCGGCAGCCUUCGGUGGCGUGAUAGCGCCAACGUUCUCAACUAUGACACGCAAAACGCGUGCUCCGUUGAAUGGAGUUUAUCAUG [A3U C87U]	-0.956
GGAUCUUCUCGAUCUAACAAAAAAGACAAAUCUGCCACAAAGCUUGAGAGCAUCUUCGGAUGCAGAGGCGGCAGCCUUCGGUGGCGCGAUAGUGCCAGCGUUCUCAACUAUGACACGCAAAACGCGUGCUCCGUUGAAUGGAGUUUAUCAUG [C93U A98G]	-1.59
GGAUCUUCUCGAUCUAACAAAAAAGCCAAAUCUGCCACAAAGCUUGAGCGCAUCUUCGGAUGCAGAGGCGGCAGCCUUCGGUGGCGCGAUAGCGCCAACGUUCUCAACUAUGACACGCAAAACGCGUGCUCCGUUGAAUGGAGUUUAUCAUG [A26C A49C]	≤ -4.2
GGAUCUUCUCGAUCUAACAAAAAUGACAAAUCUGCCACAAUGCUUGAGAGCAUCUUCGGAUGCAGAGGCGGCAGCCUUCGGUGGCUCGAUAGCGCCAACGUUCUCAACUAUGACACGCAAAACGCGUGCUCCGUUGAAUGGAGUUUAUCAUG [A24U A41U G86U]	-3.62
GGAUCUUCUCGAUCUAACAAAAAAGACAAAUCUGCCACAAAGCUUGAGAGCAUCUACGGAUGCAGAGGCGGCAGCCUUCGGUGGCGCGAUAGCGUGAACGUUCUCAACUGUGACACGCGAAACGCGUGCUCCGUUGAAUGGAGUUUAUCAUU [U56A C95U C96G A110G A119G G152U]	-4.13
GGAUCUUCUCGAUCUAACAAAAAAGACAAAUCUGCCACACAGCUUGCGAGCAUCUUCGGAUGCAGAGGCGGCAGCCUUCGGUGGCGCGAUAGAGCCAACGUUCUCAACUAUGACACGCAAAACGCGUGCUCCGUUGGAUGGAGUUCAUCAUG [A40C A47C C93A A137G U146C]	-4.13
GGAUCUUCUCGAUCUAACAAAAAAGACAAAUCUGACACAAAGCUUGAGAGCAUCUCCGGAUGCAGAGGCGGCAGCCUUCGGAGGCGCGAUAGCGCCAACGUUCUCAACUAUGACACGCAAAACGCGUGCUCCGUUGAAUGGAGUUUAUCAUG [C35A U56C U82A]	-3.49
GGAUCUUCUCGAUCUAACAAAAAAGACAAAUCUGCCACAAAGCUUGAGAGCAUCUUCGGAUGCAGAGGCGGCAGCCUUCGGUGGCGCGAUAGCGCCGACGUUCUCAACUAUGACACGCAAAACGCGUGCUCCGUUGAAUGGAGUUUAUCGUG [A97G A150G]	-2.82
GGAUCUUCUCGAUCUAACAAAAAAGACAAAUCUGCCACAAAGCUUGAGAGCAUCUUCGGAUGCAGAGGCGGCAGCCUUCGGUGGCGCGAUAGUGCCAACGUUCUCAACUAUGACACACAAAACGCGUGCUCCGUUGAAUGGCGUUUAUCAUG [C93U G117A A142C]	-4.07
GGAUCUUCUCGAUCCAACAAAAAAGACAAAUCUGCCACAAAGCUUGAGAGCAUCUUCGGAUGCAGAGGCGGCAGCCUUCCGUGGCGCGAUAGGGCCAACGUUCUCAACUAUGACAGGCAAAACGCGUGCUCCGUUGAAUGGAGUUUAUCAUG [U15C G80C C93G C116G]	-4.05
GGAUCUUCUCGAUCUAACAAAAAAGACAAAUCUGCCACAAAGCUUGGGAGCAUCUUCGGAUGCAGAGGCGGCAGCCUUCGGUGUCGCGAUAGCGCCAACGUUCUCAACUAUGACACGCAAAACGCGUGCUCCGUUGAAUGGAGUUUAUCAUG [A47G G84U]	-1.59
GGAUCUUCUCGAUCUAACAAAAAUGACAAAUCUACCACAAAGCUUGAGAGCAUCUUCGGAUGCAGAGGCGGCAGCCUUCGGUGGCGCGAUACCGCCAACGUUCUCAACUAUGACACGCAAAACGCGUGCUCCGUUGGAUGGAGUUUAUCAUG [A24U G34A G92C A137G]	-4.07
GGAUCUUCUCGAUCUAACAAAAAAGACAAAUCUGCCACAAAGCUUGAGAGCAUCUUCGGAUGUAGAGGCGGCAGCCUUCGGUGGCGCGAUAGCGCCAACGUUCUCAACUAUGACACGCAAAACGCCUGCUCCGUUGAAUGGAGUUUAUCAUG [C63U G126C]	0.627
